Measurements from publication PMC6372703, “A thermostable laccase from Thermus sp. 2.9 and its potential for delignification of Eucalyptus biomass” (AMB Express, 2019).

Tested on: CCn1c(=NN=c2sc3cc(S(=O)(=O)O)ccc3n2CC)sc2cc(S(=O)(=O)O)ccc21
Assay: purified protein
Details: 20 mM sodium acetate, pH 5, 60 °C, 1 mM CuSO4

Substance: LAC_2.9 (Thermus sp. 2.9)
- Km: 590 ± 80 µM
- kcat: 1 ± 0.04 s⁻¹
- kcat/Km: 1700 ± 200 M⁻¹ s⁻¹
